What was measured:
Assay in all cases: cell-based or functional assay
[1] = target: Env of HIV isolate X2278.C2.B6 (clade B) (HIV)
[2] = target: HIV Env of isolate ZM109.4 (HIV)
[3] = target: HIV Env of isolate 6838.v1.c35 (HIV)
[4] = target: Env of HIV isolate MW965.26 (clade C) (HIV)
[5] = target: Env of HIV isolate SF162.LS (clade B) (HIV)
[6] = target: HIV Env of isolate NKU3006.ec1 (HIV)
[7] = target: Env of HIV isolate TZA125.17 (clade C) (HIV)
[8] = target: HIV Env of isolate CAP45.G3 (HIV)
[9] = target: HIV Env of isolate CNE30 (HIV)
[10] = target: Env of HIV isolate KER2018.11 (clade A) (HIV)
[11] = target: Env of HIV isolate 6631.v3.c10 (clade C) (HIV)
[12] = target: Env of HIV isolate 45_01dG5 (clade B) (HIV)
[13] = target: HIV Env of isolate 25925-2.22 (HIV)
[14] = target: Env of HIV isolate A03349M1.vrc4a (clade D) (HIV)
[15] = target: HIV Env of isolate 6322.v4.c1 (HIV)
[16] = target: Env of HIV isolate 16845-2.22 (clade C) (HIV)
[17] = target: Env of HIV isolate BB201.B42 (clade A) (HIV)
[18] = target: Env of HIV isolate R3265.c6 (clade AE) (HIV)
[19] = target: HIV Env of isolate A03349M1.vrc4a (HIV)
[20] = target: Env of HIV isolate CNE59 (clade AE) (HIV)
[21] = target: Env of HIV isolate 6101.10 (clade B) (HIV)
[22] = target: Env of HIV isolate 6322.v4.c1 (clade C) (HIV)
[23] = target: Env of HIV isolate ZM106.9 (clade C) (HIV)
[24] = target: Env of HIV isolate 3337.v2.c6 (clade CD) (HIV)
[25] = target: Env of HIV isolate X1632.S2.B10 (clade G) (HIV)
[26] = target: Env of HIV isolate REJO.67 (clade B) (HIV)
Env of SIVmac251.30.SG3 = target: Env of SIVmac251.30.SG3
[27] = target: Env of HIV isolate CNE57 (clade B) (HIV)
[28] = target: HIV Env of isolate CH117.4 (HIV)
[29] = target: Env of HIV isolate CNE15 (clade BC) (HIV)
[30] = target: Env of HIV isolate 001428-2.42 (clade C) (HIV)
[31] = target: Env of HIV isolate CNE58 (clade C in Table 7) (HIV)
[32] = target: Env of HIV isolate 288.38 (clade C) (HIV)
[33] = target: HIV Env of isolate ZM233.6 (HIV)
[34] = target: HIV Env of isolate 286.36 (HIV)
[35] = target: Env of HIV isolate CAP244.D3 (clade C) (HIV)
[36] = target: HIV Env of isolate CNE40 (HIV)
[37] = target: HIV Env of isolate ZM176.66 (HIV)
[38] = target: HIV Env of isolate CH070.1 (HIV)
[39] = target: Env of HIV isolate TH976.17 (clade AE) (HIV)
[40] = target: Env of HIV isolate 247-23 (clade D) (HIV)
[41] = target: Env of HIV isolate ZM197.7 (clade C) (HIV)
[42] = target: Env of HIV isolate R2184.c4 (clade AE) (HIV)
[43] = target: Env of HIV isolate ZM55.28a (clade C) (HIV)
[44] = target: HIV Env of isolate 3873.v1.c24 (HIV)
[45] = target: Env of HIV isolate X2131.C1.B5 (clade G) (HIV)
[46] = target: Env of HIV isolate CNE21 (clade BC) (HIV)
[47] = target: Env of HIV isolate CNE5 (clade AE) (HIV)
[48] = target: Env of HIV isolate HXB2.DG (clade B) (HIV)
[49] = target: Env of HIV isolate X1254.c3 (clade G) (HIV)

B1: ePGT121.15 (ePGT121.15.H6 VH and ePGT121.15.L1 VL) (antibody, V domains shown)
VH: QMQLQESGPGLVKPGETLSLTCSVSGASISSSYWSWLRETPGKGLEWIGYTHHSGDTNYAPSLKSRVHLGLHPSKNQVSLSLTSVTAADTAVYYCARTLHGRRIYGVVAFNEFFTYFYWEVWGKGTQVTVSS
VL: SDISVAPGETVRISCGGESIGSRAVQWYQHRAGQAPKLIIYNNQDRPPGIPERFSGSPDIDFGTTATLTITNVEAGDEATYYCHIWDSRRPTNWVFGGGTTLTVL
[1]
  IC50, pseudovirus neutralization: 0.002 µg/mL
[2]
  IC80, pseudovirus neutralization: > 50 µg/mL
[3]
  IC80, pseudovirus neutralization: 1.34 µg/mL
[4]
  IC50, pseudovirus neutralization: 0.004 µg/mL
[5]
  IC50, pseudovirus neutralization: 0.003 µg/mL
[6]
  IC80, pseudovirus neutralization: > 50 µg/mL
[7]
  IC50, pseudovirus neutralization: 0.07 µg/mL
[8]
  IC80, pseudovirus neutralization: 24.1 µg/mL
[9]
  IC80, pseudovirus neutralization: 0.027 µg/mL
[10]
  IC50, pseudovirus neutralization: > 50 µg/mL
[11]
  IC50, pseudovirus neutralization: 0.015 µg/mL
[12]
  IC50, pseudovirus neutralization: 0.003 µg/mL
[13]
  IC80, pseudovirus neutralization: 0.013 µg/mL
[14]
  IC50, pseudovirus neutralization: 0.006 µg/mL
[15]
  IC80, pseudovirus neutralization: > 50 µg/mL
[16]
  IC50, pseudovirus neutralization: 0.077 µg/mL
[17]
  IC50, pseudovirus neutralization: 0.003 µg/mL
[18]
  IC50, pseudovirus neutralization: > 50 µg/mL
[19]
  IC80, pseudovirus neutralization: 0.019 µg/mL
[20]
  IC50, pseudovirus neutralization: > 50 µg/mL
[21]
  IC50, pseudovirus neutralization: 0.002 µg/mL
[22]
  IC50, pseudovirus neutralization: > 50 µg/mL
[23]
  IC50, pseudovirus neutralization: 0.002 µg/mL
[24]
  IC50, pseudovirus neutralization: 0.589 µg/mL
[25]
  IC50, pseudovirus neutralization: > 50 µg/mL
[26]
  IC50, pseudovirus neutralization: 1.46 µg/mL
Env of SIVmac251.30.SG3
  IC80, pseudovirus neutralization: > 50 µg/mL
[27]
  IC50, pseudovirus neutralization: 0.004 µg/mL
[28]
  IC80, pseudovirus neutralization: > 50 µg/mL
[29]
  IC50, pseudovirus neutralization: 3.52 µg/mL
[30]
  IC50, pseudovirus neutralization: 0.002 µg/mL
[31]
  IC50, pseudovirus neutralization: 0.023 µg/mL
[32]
  IC50, pseudovirus neutralization: 0.001 µg/mL
[33]
  IC80, pseudovirus neutralization: 0.073 µg/mL
[34]
  IC80, pseudovirus neutralization: 0.006 µg/mL
[35]
  IC50, pseudovirus neutralization: > 50 µg/mL
[36]
  IC80, pseudovirus neutralization: 0.082 µg/mL
[37]
  IC80, pseudovirus neutralization: 0.31 µg/mL
[38]
  IC80, pseudovirus neutralization: 0.004 µg/mL
[39]
  IC50, pseudovirus neutralization: > 50 µg/mL
[40]
  IC50, pseudovirus neutralization: > 50 µg/mL
[41]
  IC50, pseudovirus neutralization: > 50 µg/mL
[42]
  IC50, pseudovirus neutralization: > 50 µg/mL
[43]
  IC50, pseudovirus neutralization: 0.009 µg/mL
[44]
  IC80, pseudovirus neutralization: 0.011 µg/mL
[45]
  IC50, pseudovirus neutralization: 0.002 µg/mL
[46]
  IC50, pseudovirus neutralization: 0.002 µg/mL
[47]
  IC50, pseudovirus neutralization: > 50 µg/mL
[48]
  IC50, pseudovirus neutralization: 0.011 µg/mL
[49]
  IC50, pseudovirus neutralization: 0.004 µg/mL

Reference: patent US20210292396A1
